# Assay results as given in patent US11597752B2, “Peptides and combination of peptides and scaffolds thereof for use in immunotherapy against colorectal carcinoma (CRC) and other cancers” (priority 2015, dated 2023).
# Biological target: HLA-A*02:01 (Homo sapiens, UniProt P04439, D140Y/D185E/D98H/E176V/E277Q/G131W/G231S/I119V/I121R/I166T/I218V/L300P/L318F/N151K/N90K/P208A/P217A/Q86G/Q94H/R138H/R169H/T345S)
# Assay: MHC binding assay (UV-ligand exchange, beta2m ELISA, peptide exchange yield)
# Settings: binding to HLA-A*02:01, β2m ELISA
# Text: Candidate peptides for T cell based therapies according to the present invention were further tested for their MHC binding capacity (affinity). The individual peptide-MHC complexes were produced by UV-ligand exchange, where a UV-sensitive peptide is cleaved upon UV-irradiation, and exchanged with the peptide of interest as analyzed. Only peptide candidates that can effectively bind and stabilize the peptide-receptive MHC molecules prevent dissociation of the MHC complexes. To determine the yield of the exchange reaction, an ELISA was performed based on the detection of the light chain (β2m) of stabilized MHC complexes. The assay was performed as generally described in Rodenko et al. (Rodenko et al., 2006).
# 96 well MAXISorp plates (NUNC) were coated over night with 2 ug/ml streptavidin in PBS at room temperature, washed 4× and blocked for 1 h at 37° C. in 2% BSA containing blocking buffer. Refolded HLA-A*02:01/MLA-001 monomers served as standards, covering the range of 15-500 ng/ml. Peptide-MHC monomers of the UV-exchange reaction were diluted 100 fold in blocking buffer. Samples were incubated for 1 h at 37° C., washed four times, incubated with 2 ug/ml HRP conjugated anti-β2m for 1 h at 37° C., washed again and detected with TMB solution that is stopped with […]. Absorption was measured at 450 nm. Candidate peptides that show a high exchange yield (preferably higher than 50%, most preferred higher than 75%) are generally preferred for a generation and production of antibodies or fragments thereof, and/or T cell receptors or fragments thereof, as they show sufficient avidity to the MHC molecules and prevent dissociation of the MHC complexes.
row,Substance,"Peptide exchange (MHC class I binding score, peptide exchange yield)"
1,152 (KLLAVIHEL; listed as Homo sapiens) [compound 152],“++” (≥20% = ++)
2,153 (ILFSEDSTKLFV; listed as Homo sapiens) [compound 153],“+++” (≥50 = +++)
3,154 (KLPSETIFVGC; listed as Homo sapiens) [compound 154],“+++” (≥50 = +++)
4,155 (RLLGEEVVRV; listed as Homo sapiens) [compound 155],“+++” (≥50 = +++)
5,156 (SLMMTIINL; listed as Homo sapiens) [compound 156],“++++” (≥75% = ++++)
6,157 (SLIERDLKL; listed as Homo sapiens) [compound 157],“+++” (≥50 = +++)
7,158 (GLLDPSVFHV; listed as Homo sapiens) [compound 158],“+++” (≥50 = +++)
8,159 (VLVDDDGIKVV; listed as Homo sapiens) [compound 159],“++” (≥20% = ++)
9,160 (KLLEFDQLQL; listed as Homo sapiens) [compound 160],“+++” (≥50 = +++)
10,161 (FLKNELDNV; listed as Homo sapiens) [compound 161],“+++” (≥50 = +++)
11,162 (KLMDYIDEL; listed as Homo sapiens) [compound 162],“+++” (≥50 = +++)
12,163 (RLLHEVQEL; listed as Homo sapiens) [compound 163],“+++” (≥50 = +++)
13,164 (KMLDEILLQL; listed as Homo sapiens) [compound 164],“++++” (≥75% = ++++)
14,165 (RLLDFPEAMVL; listed as Homo sapiens) [compound 165],“++++” (≥75% = ++++)
15,166 (GLLEARGILGL; listed as Homo sapiens) [compound 166],“+++” (≥50 = +++)
16,167 (SVIDHIHLISV; listed as Homo sapiens) [compound 167],“+++” (≥50 = +++)
17,168 (GLIRFPLMTI; listed as Homo sapiens) [compound 168],“+++” (≥50 = +++)
18,169 (YLAHFIEGL; listed as Homo sapiens) [compound 169],“+++” (≥50 = +++)
19,170 (ALAGGITMV; listed as Homo sapiens) [compound 170],“+++” (≥50 = +++)
20,171 (RLQETEGMVAV; listed as Homo sapiens) [compound 171],“++” (≥20% = ++)
21,172 (LLLDTVTMQV; listed as Homo sapiens) [compound 172],“+++” (≥50 = +++)
22,173 (KLGDLMVLL; listed as Homo sapiens) [compound 173],“+++” (≥50 = +++)
23,174 (ILLDDNMQIRL; listed as Homo sapiens) [compound 174],“++++” (≥75% = ++++)
24,175 (TLLGGKEAQALGV; listed as Homo sapiens) [compound 175],“+++” (≥50 = +++)
25,176 (RTLDKVLEV; listed as Homo sapiens) [compound 176],“++” (≥20% = ++)
26,177 (ALLQGAIESV; listed as Homo sapiens) [compound 177],“+++” (≥50 = +++)
27,178 (YLFREPATI; listed as Homo sapiens) [compound 178],“++” (≥20% = ++)
